Data published in article PMC2958812, “Evidence for a Xer/dif System for Chromosome Resolution in Archaea”.

T1: XerA (Pab0255) (Pyrococcus abyssi, UniProt Q9V1P5 1-286)
T1 sequence: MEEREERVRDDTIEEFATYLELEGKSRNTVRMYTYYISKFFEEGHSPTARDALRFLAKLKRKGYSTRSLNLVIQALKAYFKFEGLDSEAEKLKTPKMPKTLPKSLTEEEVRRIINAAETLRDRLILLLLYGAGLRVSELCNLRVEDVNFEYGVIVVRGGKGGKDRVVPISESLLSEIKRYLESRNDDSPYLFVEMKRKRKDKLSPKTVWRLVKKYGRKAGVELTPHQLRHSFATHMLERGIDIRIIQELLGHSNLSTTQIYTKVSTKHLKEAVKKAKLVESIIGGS

B1: dif-Pab (dsDNA)
DNA 1: GTTAACTATATTGGATATAATCGGCCTTATATCTAAAGTGTTG
DNA 2: CAACACTTTAGATATAAGGCCGATTATATCCAATATAGTTAAC
B2: attP (SSV1 minimal) (dsDNA)
DNA 1: GTTAACTATCTTTTCCGCCTCCGGAGCCGGAGGTCCCGTGTTG
DNA 2: CAACACGGGACCTCCGGCTCCGGAGGCGGAAAAGATAGTTAAC

Assays:
XerA (Pab0255) [1] = biological target: T1, XerA (Pab0255); assay: EMSA; 65 C; 0.5 ug poly(dIdC); EMSA: 0.5 uM labeled DNA, 50 mM Tris pH 7.5, 30 mM NaCl, 0.5 ug poly(dIdC).poly(dIdC), 20 ul, 30 min at 20 or 65 C; native PAGE in TGE at 4 C; settings: protein: recombinant; tags: N-terminal His6 (MHHHHHH, from forward primer); label: 5'-32P on top strand; blunt
XerA (Pab0255) [2] = biological target: T1, XerA (Pab0255); assay: EMSA; 20 C; 0.5 ug poly(dIdC); EMSA: 0.5 uM labeled DNA, 50 mM Tris pH 7.5, 30 mM NaCl, 0.5 ug poly(dIdC).poly(dIdC), 20 ul, 30 min at 20 or 65 C; native PAGE in TGE at 4 C; settings: protein: recombinant; tags: N-terminal His6 (MHHHHHH, from forward primer); label: 5'-32P on top strand; blunt

Row | Binder | binding signal (XerA (Pab0255) [1]) | binding signal (XerA (Pab0255) [2])
1 | B1 | 8 fold complex formation vs attP | 4 fold complex formation vs attP
2 | B2 | 0.125 complex formation relative to dif-Pab (8 fold less) | 0.25 complex formation relative to dif-Pab (4 fold less)
